Some targets named below: BMP-7 E60K (human) (UniProt P18075); BMP-7 (human) (UniProt P18075); BMP-6 (human) (UniProt P22004); BMP-7 Y78H (human) (UniProt P18075).
Test in all cases: cell-based or functional assay
For test [1], the target named is Rev K60E (revertant of 80-1) (human) (UniProt P18075).
Test [2] addresses BMP-7 R48Q/E60K/Y65N (human) (UniProt P18075).

Chain of UniProt P22004 (P22004 375-513): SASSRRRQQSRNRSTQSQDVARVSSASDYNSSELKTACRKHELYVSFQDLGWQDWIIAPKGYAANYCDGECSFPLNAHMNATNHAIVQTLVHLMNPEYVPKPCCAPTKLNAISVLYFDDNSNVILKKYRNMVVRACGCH

B1: Noggin (protein, UniProt Q13253 28-232, looked up)
chain: QHYLHIRPAPSDNLPLVDLIEHPDPIFDPKEKDLNETLLRSLLGGHYDPGFMATSPPEDRPGGGGGAAGGAEDLAELDQLLRQRPSGAMPSEIKGLEFSEGLAQGKKQRLSKKLRRKLQMWLWSQTFCPVLYAWNDLGSRFWPRYVKVGSCFSKRSCSVPEGMVCKPSKSVHLTVLRWRCQRRGGQRCGWIPIQYPIISECKCSC
Take B1: in test [1], the relative activity in the presence of noggin at 100 ng/ml (N1), reporter gene assay was found to be 86%. In addition, the relative activity in the presence of noggin at 500 ng/ml (N2), reporter gene assay in test [1] is 51%. Moreover, the relative activity in the presence of noggin at 1000 ng/ml (N3), reporter gene assay in test [1] is 32%. Besides, the relative activity at 1000 ng/ml of noggin, reporter gene assay, conditioned media in test [2] came out at 63%; with BMP-7 E60K (human) it was 53%; with BMP-7 (human) it was 15%; in the test with BMP-6 (human), 73%; in the test with BMP-7 Y78H (human), 31%. In the test with BMP-6 (human), this molecule came in with a BMP-induced ID-1 gene expression by QPCR in hMSCs, BMP 50 ng/ml, Noggin 1.5 ug/ml, level against background (times background) of 2. This molecule had a maximum percent inhibition by Noggin of BMP-induced luciferase activity, A549-BRE cells, BMP 150 ng/ml in the test with BMP-6 (human) of 25%.

For the origin of these results see patent US20110039773A1.
